Laboratory results as given in paper PMC9177699, “Dynamic interplay between the periplasmic chaperone SurA and the BAM complex in outer membrane protein folding” (Communications Biology, 2022).

Experiments:
SurA-core = biological target: T1, SurA-core (E. coli, UniProt P0ABZ6 21-428, removing residues 172–389); test: MST; 100 nM Alexa Fluor 488-labelled tOmpA, SurA or SurA domain deletion variant titrated 100 µM-3 nM, 0.8 M urea, 20 mM Tris-HCl, pH 8.0, 25 °C; Hill binding model; apparent Kd; conditions: both partners purified
T1 construct: gene numbering including the signal peptide; source: E. coli BL21(DE3), purified (HisTrap with on-column 6 M Gdn-HCl wash, TEV cleavage, second HisTrap); not shown: His6, N-terminal, cleaved
T1 sequence: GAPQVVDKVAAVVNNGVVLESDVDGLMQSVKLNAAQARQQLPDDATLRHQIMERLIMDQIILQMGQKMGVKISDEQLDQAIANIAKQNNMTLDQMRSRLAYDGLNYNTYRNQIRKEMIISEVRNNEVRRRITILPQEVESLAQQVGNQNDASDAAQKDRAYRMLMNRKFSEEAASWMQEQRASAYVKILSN

SurA-WT = biological target: T2, SurA-WT (E. coli, UniProt P0ABZ6 21-428); test: as above; conditions: both partners purified
T2 construct: gene numbering including the signal peptide; also called wild-type SurA; source: E. coli BL21(DE3), purified (HisTrap with on-column 6 M Gdn-HCl wash, TEV cleavage, second HisTrap); not shown: His6, N-terminal, cleaved
T2 sequence: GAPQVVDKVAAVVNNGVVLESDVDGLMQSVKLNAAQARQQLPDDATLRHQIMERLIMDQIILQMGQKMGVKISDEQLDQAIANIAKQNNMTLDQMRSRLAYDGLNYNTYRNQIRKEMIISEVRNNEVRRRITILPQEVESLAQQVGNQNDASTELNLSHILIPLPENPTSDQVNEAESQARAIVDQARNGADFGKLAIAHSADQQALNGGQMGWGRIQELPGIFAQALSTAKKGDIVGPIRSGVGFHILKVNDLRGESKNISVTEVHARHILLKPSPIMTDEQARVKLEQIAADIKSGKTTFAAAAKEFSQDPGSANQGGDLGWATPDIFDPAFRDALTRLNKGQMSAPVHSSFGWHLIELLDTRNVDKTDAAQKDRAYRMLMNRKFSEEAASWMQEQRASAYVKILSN

SurA-∆P2 = biological target: T3, SurA-∆P2 (E. coli, UniProt P0ABZ6 21-428, removing residues 281–389); test: as above; conditions: both partners purified
T3 construct: gene numbering including the signal peptide; source: E. coli BL21(DE3), purified (HisTrap with on-column 6 M Gdn-HCl wash, TEV cleavage, second HisTrap); not shown: His6, N-terminal, cleaved
T3 sequence: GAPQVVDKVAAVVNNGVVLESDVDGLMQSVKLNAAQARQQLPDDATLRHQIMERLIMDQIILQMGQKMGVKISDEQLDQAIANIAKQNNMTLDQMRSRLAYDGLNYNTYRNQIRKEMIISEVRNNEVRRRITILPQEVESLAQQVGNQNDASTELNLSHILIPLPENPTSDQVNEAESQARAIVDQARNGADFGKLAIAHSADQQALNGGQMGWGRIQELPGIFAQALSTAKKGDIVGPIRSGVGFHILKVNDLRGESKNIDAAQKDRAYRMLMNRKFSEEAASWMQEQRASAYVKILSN

SurA-∆P1 = biological target: T4, SurA-∆P1 (E. coli, UniProt P0ABZ6 21-428, removing residues 172–280); test: as above; conditions: both partners purified
T4 construct: gene numbering including the signal peptide; source: E. coli BL21(DE3), purified (HisTrap with on-column 6 M Gdn-HCl wash, TEV cleavage, second HisTrap); not shown: His6, N-terminal, cleaved
T4 sequence: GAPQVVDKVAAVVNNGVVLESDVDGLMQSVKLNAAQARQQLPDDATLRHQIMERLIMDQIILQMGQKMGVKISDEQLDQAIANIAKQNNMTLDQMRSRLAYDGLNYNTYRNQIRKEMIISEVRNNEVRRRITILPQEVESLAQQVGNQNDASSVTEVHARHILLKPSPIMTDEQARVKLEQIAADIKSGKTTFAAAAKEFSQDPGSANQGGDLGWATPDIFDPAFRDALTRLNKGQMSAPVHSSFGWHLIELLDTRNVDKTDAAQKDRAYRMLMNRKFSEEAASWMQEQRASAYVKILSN

[1] = biological target: T5, BamB (as a subunit of the purified BAM complex) (E. coli, UniProt P77774 20-392); test: HDX-MS; differential HDX; 8 µM BAM with 10 µM SurA-WT or SurA-core, or 8 µM SurA-WT with 10 µM BAM; 0.02% DDM, 10 mM potassium phosphate, pH 8.0; labelling at 4 °C for 0.5, 2, 30, 120 min; conditions: both partners purified
T5 construct: BamB, E. coli, accessory lipoprotein of BAM, expressed from pJH114; Stood in the assays within the whole BAM complex, not alone

[2] = biological target: β-barrel assembly machinery (BAM) complex, BamABCDE (E. coli, UniProt P0A940 21-810; P77774 20-392; P0A903 25-344; P0AC02 20-245; P0A937 20-113); test: cell-based or functional assay

B1: Alexa Fluor 488-labelled tOmpA (domain or fragment)
chain: MCAPKDNTWYTGAKLGWSQYHDTGFINNNGPTHENQLGAGAFGGYQVNPYVGFEMGYDWLGRMPYKGSVENGAYKAQGVQLTAKLGYPITDDLDIYTRLGGMVWRADTKSNVYGKNHDTGVSPVFAGGVEYAITPEIATRLEYQWTNNIGDAHTIGTRPDNGMLSLGVSYRFG
modifications: Alexa Fluor 488 (C5 maleimide) on the added cysteine
notes: N-terminal Met and the Cys residue added immediately following it; unfolded: kept in 8 M urea and diluted to 0.8 M urea for the assay; also called Cys-tOmpA
B1 showed a Kd (SurA-core) of 10.2 µM, a Kd (SurA-WT) of 3.7 µM and a Kd (SurA-∆P2) of 8.8 µM. It also gave a Kd (SurA-∆P1) of 14.5 µM.

B2: SurA-core (SurA 21-428 without residues 172-389, His-tag cleaved) (domain or fragment, E. coli, UniProt P0ABZ6 21-428, looked up)
chain: APQVVDKVAAVVNNGVVLESDVDGLMQSVKLNAAQARQQLPDDATLRHQIMERLIMDQIILQMGQKMGVKISDEQLDQAIANIAKQNNMTLDQMRSRLAYDGLNYNTYRNQIRKEMIISEVRNNEVRRRITILPQEVESLAQQVGNQNDASDAAQKDRAYRMLMNRKFSEEAASWMQEQRASAYVKILSN
notes: numbers are the gene numbering (including the signal peptide); A G of the TEV site probably stays after cleavage (surmised); source: E. coli BL21(DE3), purified (HisTrap, on-column denaturation with 6 M Gdn-HCl, TEV cleavage, second HisTrap); not shown: His6, N-terminal, cleaved
In the case of B2, the binding result [1] is reported as “binds” and the “rate of BAM-catalysed folding of tOmpA into proteoliposomes (cold SDS–PAGE), with SurA-core against SurA-WT” value [2] is reported as about 3 fold.
